The series concerns T1, piggyBac transposase (Trichoplusia ni).
T1 sequence: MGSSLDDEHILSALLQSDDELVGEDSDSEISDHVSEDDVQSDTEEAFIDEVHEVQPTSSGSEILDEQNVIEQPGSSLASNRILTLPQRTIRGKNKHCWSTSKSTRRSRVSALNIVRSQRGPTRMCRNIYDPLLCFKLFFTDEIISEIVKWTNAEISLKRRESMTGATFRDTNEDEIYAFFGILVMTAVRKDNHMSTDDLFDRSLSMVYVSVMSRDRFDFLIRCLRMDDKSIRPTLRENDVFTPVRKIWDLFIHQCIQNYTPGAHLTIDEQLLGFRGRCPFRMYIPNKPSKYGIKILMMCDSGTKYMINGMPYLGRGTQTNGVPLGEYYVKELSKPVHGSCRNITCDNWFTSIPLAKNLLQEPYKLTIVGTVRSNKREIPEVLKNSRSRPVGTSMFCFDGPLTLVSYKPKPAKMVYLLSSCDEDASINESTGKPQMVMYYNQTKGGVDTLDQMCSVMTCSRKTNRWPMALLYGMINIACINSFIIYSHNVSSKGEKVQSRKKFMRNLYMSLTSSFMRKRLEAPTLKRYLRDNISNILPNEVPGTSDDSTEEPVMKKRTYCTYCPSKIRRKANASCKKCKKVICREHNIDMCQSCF
In words: cell_activity. The conditions noted are these: RFP+ HEK-293 at 28 days.

“CCCTAGAAAGATAGTCTGCGTAAAATTGACGCATGCATGCGTCAATTTTACGCATGATTATCTTTAACGTACGTCACAATATGATTATCTTTCTAGGG (double strand)” had an activity of 0.72%.

The values are drawn from US20180195086.
